Test results reported in patent publication US20220380801A1, “TRIPARTITE SYSTEMS FOR PROTEIN DIMERIZATION AND METHODS OF USE” (priority 2019, published 2022).
Where two headings read alike, the source gives them in different places.

What was measured:
Conditions in all cases: remark: other sources report otherwise
[1] = target: T1, HCV NS3/4A PR (S139A):simeprevir complex (Hepatitis C virus subtype 1a); test: SPR Biacore 8K, PRSIM immobilised, protease flowed with 10 nM simeprevir
[2] = target: T1, HCV NS3/4A PR (S139A):simeprevir …; test: phage ELISA
[3] = target: T1, HCV NS3/4A PR (S139A):simeprevir …
[4] = target: T1, HCV NS3/4A PR (S139A):simeprevir …; remark: listed apart in the source
[5] = target: T1, HCV NS3/4A PR (S139A):simeprevir …; remark: listed apart in the source
[6] = target: T1, HCV NS3/4A PR (S139A):simeprevir …; test: HTRF, with simeprevir
[7] = target: T1, HCV NS3/4A PR (S139A):simeprevir …; remark: listed apart in the source
[8] = target: HCV NS3/4A PR K136H (S139A background), in the presence of simeprevir (Hepatitis C virus subtype 1a)
[9] = target: T1, HCV NS3/4A PR (S139A):simeprevir …; remark: listed apart in the source

B1: PRSIM_23 (designed binder)
chain: RLDAPSQIEVKDVTDTTALITWVDPRYDDIWWFELTYGIKDVPGDRTTIKLYLNDPYYSIGNLKPDTEYEVSLISYTGDSYSRSGSNPAKITFKTGL
[1]
  Kd: 6.3 nM
  koff: 0.0318 s⁻¹
  kon: 5.03e+06 M⁻¹ s⁻¹
[2]
  Binding fold change [(HCV protease + Simeprevir binding)/HCV protease alone]: 23.8 fold
[3]
  Simeprevir EC50 for induction of heterodimerisation: 4.53 nM
[4]
  Kd: 5.4 nM
[5]
  EC50 (read off the curve): 2 nM
[6]
  HTRF max. signal (% delta F): 1570 % delta F
[7]
  EC50 (read off the curve): 3 nM
[8]
  EC50 (read off the curve): 4 nM
[9]
  Simeprevir EC50 for induction of heterodimerisation: 4.03 nM
